The results in this text go back to paper PMC4330345 (Nucleic Acids Research, 2015).

T1: HlyU_Vc wild type (Vibrio cholerae, UniProt P52695 1-108)
T1 sequence: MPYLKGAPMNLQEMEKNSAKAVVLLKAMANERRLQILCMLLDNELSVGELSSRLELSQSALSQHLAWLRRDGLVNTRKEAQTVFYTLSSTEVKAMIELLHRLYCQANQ

B1: O1 (dsDNA)
DNA 1: TTTATAAATTAATTCAGACTAAATTAGTTCAAATT
DNA 2: AATTTGAACTAATTTAGTCTGAATTAATTTATAAA
B2: O3 (dsDNA)
DNA 1: TTGGGGGGGGGGGGGGGACTAAATTAGTTCAAATT
DNA 2: AATTTGAACTAATTTAGTCCCCCCCCCCCCCCCAA
B3: O2 (dsDNA)
DNA 1: ATTAATCTTTAAATCAACTTTATAAATTAATTCAG
DNA 2: CTGAATTAATTTATAAAGTTGATTTAAAGATTAAT
B4: HlyU of V. cholerae, wild type (natural protein)
chain: MPYLKGAPMNLQEMEKNSAKAVVLLKAMANERRLQILCMLLDNELSVGELSSRLELSQSALSQHLAWLRRDGLVNTRKEAQTVFYTLSSTEVKAMIELLHRLYCQANQ
notes: not shown: His6, N-terminal, cleaved
B5: HlyU_Vc E49A (natural protein)
chain: MPYLKGAPMNLQEMEKNSAKAVVLLKAMANERRLQILCMLLDNELSVGALSSRLELSQSALSQHLAWLRRDGLVNTRKEAQTVFYTLSSTEVKAMIELLHRLYCQANQ
notes: source: E. coli BL21 (DE3), purified (Ni-NTA); not shown: His6, N-terminal, cleaved
B6: HlyU_Vc Q81A (natural protein)
chain: MPYLKGAPMNLQEMEKNSAKAVVLLKAMANERRLQILCMLLDNELSVGELSSRLELSQSALSQHLAWLRRDGLVNTRKEAATVFYTLSSTEVKAMIELLHRLYCQANQ
notes: as for B5
B7: HlyU_Vc T90A (natural protein)
chain: MPYLKGAPMNLQEMEKNSAKAVVLLKAMANERRLQILCMLLDNELSVGELSSRLELSQSALSQHLAWLRRDGLVNTRKEAQTVFYTLSSAEVKAMIELLHRLYCQANQ
notes: as for B5
B8: HlyU_Vc R69A (natural protein)
chain: MPYLKGAPMNLQEMEKNSAKAVVLLKAMANERRLQILCMLLDNELSVGELSSRLELSQSALSQHLAWLARDGLVNTRKEAQTVFYTLSSTEVKAMIELLHRLYCQANQ
notes: as for B5
B9: HlyU_Vc R33A (natural protein)
chain: MPYLKGAPMNLQEMEKNSAKAVVLLKAMANERALQILCMLLDNELSVGELSSRLELSQSALSQHLAWLRRDGLVNTRKEAQTVFYTLSSTEVKAMIELLHRLYCQANQ
notes: as for B5
B10: HlyU_Vc W67A (natural protein)
chain: MPYLKGAPMNLQEMEKNSAKAVVLLKAMANERRLQILCMLLDNELSVGELSSRLELSQSALSQHLAALRRDGLVNTRKEAQTVFYTLSSTEVKAMIELLHRLYCQANQ
notes: as for B5
B11: HlyU_Vc L65A (natural protein)
chain: MPYLKGAPMNLQEMEKNSAKAVVLLKAMANERRLQILCMLLDNELSVGELSSRLELSQSALSQHAAWLRRDGLVNTRKEAQTVFYTLSSTEVKAMIELLHRLYCQANQ
notes: as for B5
B12: HlyU_Vc K78A (natural protein)
chain: MPYLKGAPMNLQEMEKNSAKAVVLLKAMANERRLQILCMLLDNELSVGELSSRLELSQSALSQHLAWLRRDGLVNTRAEAQTVFYTLSSTEVKAMIELLHRLYCQANQ
notes: as for B5
B13: HlyU_Vc Q63A (natural protein)
chain: MPYLKGAPMNLQEMEKNSAKAVVLLKAMANERRLQILCMLLDNELSVGELSSRLELSQSALSAHLAWLRRDGLVNTRKEAQTVFYTLSSTEVKAMIELLHRLYCQANQ
notes: as for B5
B14: HlyU_Vc H64A (natural protein)
chain: MPYLKGAPMNLQEMEKNSAKAVVLLKAMANERRLQILCMLLDNELSVGELSSRLELSQSALSQALAWLRRDGLVNTRKEAQTVFYTLSSTEVKAMIELLHRLYCQANQ
notes: as for B5
B15: HlyU_Vc Y85A (natural protein)
chain: MPYLKGAPMNLQEMEKNSAKAVVLLKAMANERRLQILCMLLDNELSVGELSSRLELSQSALSQHLAWLRRDGLVNTRKEAQTVFATLSSTEVKAMIELLHRLYCQANQ
notes: as for B5
B16: HlyU_Vc L98D (natural protein)
chain: MPYLKGAPMNLQEMEKNSAKAVVLLKAMANERRLQILCMLLDNELSVGELSSRLELSQSALSQHLAWLRRDGLVNTRKEAQTVFYTLSSTEVKAMIEDLHRLYCQANQ
notes: as for B5
B17: HlyU_Vc S62A (natural protein)
chain: MPYLKGAPMNLQEMEKNSAKAVVLLKAMANERRLQILCMLLDNELSVGELSSRLELSQSALAQHLAWLRRDGLVNTRKEAQTVFYTLSSTEVKAMIELLHRLYCQANQ
notes: as for B5
B18: HlyU_Vc A66S (natural protein)
chain: MPYLKGAPMNLQEMEKNSAKAVVLLKAMANERRLQILCMLLDNELSVGELSSRLELSQSALSQHLSWLRRDGLVNTRKEAQTVFYTLSSTEVKAMIELLHRLYCQANQ
notes: as for B5
B19: HlyU_Vc R32A (natural protein)
chain: MPYLKGAPMNLQEMEKNSAKAVVLLKAMANEARLQILCMLLDNELSVGELSSRLELSQSALSQHLAWLRRDGLVNTRKEAQTVFYTLSSTEVKAMIELLHRLYCQANQ
notes: as for B5
B20: HlyU_Vc K26A (natural protein)
chain: MPYLKGAPMNLQEMEKNSAKAVVLLAAMANERRLQILCMLLDNELSVGELSSRLELSQSALSQHLAWLRRDGLVNTRKEAQTVFYTLSSTEVKAMIELLHRLYCQANQ
notes: as for B5
B21: HlyU_Vc R70A (natural protein)
chain: MPYLKGAPMNLQEMEKNSAKAVVLLKAMANERRLQILCMLLDNELSVGELSSRLELSQSALSQHLAWLRADGLVNTRKEAQTVFYTLSSTEVKAMIELLHRLYCQANQ
notes: as for B5
B22: HlyU_Vc N30A (natural protein)
chain: MPYLKGAPMNLQEMEKNSAKAVVLLKAMAAERRLQILCMLLDNELSVGELSSRLELSQSALSQHLAWLRRDGLVNTRKEAQTVFYTLSSTEVKAMIELLHRLYCQANQ
notes: as for B5

The first data set concerns the target T1, HlyU_Vc wild type. The experiment in a line: EMSA; EMSA: 1 nM probe, 1 mM Tris, 6 mM NaCl, 0.5 mM MgCl2, 0.01 mM EDTA, 0.1 mM CaCl2, 0.2% glycerol, 0.03 mg/ml salmon sperm DNA, 1 h, 4 C, pH not stated; footprint: ~10 nM DNA, 1 h, 4 C. As to conditions: protein: recombinant; tags: N-terminal 6xHis removed with thrombin; chain copies: 2; label: radiolabel; blunt. (Mobility shift assays separate free from complexed probe on a gel.)
On to B1, for which the binding result was “binds”. Same read-out and setting: to B2 belongs “no binding”; to B3, “no binding”.

Another data set concerns the molecule itself. The experiment in a line: SEC.
Settings: not given
With B4, the “stoichiometry N” value was 2.

Another data set concerns the molecule itself. The data set is described as follows: SEC; analytical gel filtration (AKTA prime Plus); 500 ug protein injected; 50 mM sodium phosphate, 200 mM sodium chloride, pH 6.8; molecular weight from marker proteins; self-association, dimer against monomer.
Settings: not given
B5: the binding result is on record as “binds”. Still for that read-out and setting: as for B6, the entry is “binds”.

For the molecule B7, the binding result is “binds”.

As for B8, the binding result is on record as “binds”.

B9: the binding result is “binds”. The same measure, in the same setting: to B10 belongs “binds”. Same read-out and setting: to B11 belongs “binds”; to B12, “binds”.

Take B13: the binding result is “binds”. For B14, the binding result is listed as “binds”. For the molecule B15, the binding result is recorded as “binds”. Still for that read-out and setting: to B16 belongs “binds”. On to B17, for which the binding result is “binds”. The same measure, in the same setting: as for B18, the entry is “binds”; as for B19, “binds”. Consider B20, for which the binding result was “binds”. On the same count and under the same terms, as for B21, the entry is “binds”.

For B22, the binding result is recorded as “binds”.

As usually defined, the stoichiometry N is a count of units in the complex or per binding partner.
